Source: patent EP2986720B1, “URICASE MUTANTS” (Council of Scientific & Industrial Research, priority 2013, dated 2014)

What was measured:
Experiment in all cases: Enzyme kinetic study of uricase (4-AAP/phenol/HRP colour assay, 505 nm)
[1] = system: O=c1[nH]c(=O)c2[nH]c(=O)[nH]c2[nH]1; type: biochemical, Aspergillus flavus; conditions: other: substrate uric acid 10 to 600 µM; respective optimum pH and temperature; Table 1; pH 7.0
Description: (§1) Enzymatic assay of uricase: Substrate mixture contains • a. 2.2 ml of 2 mM Uric acid • b. 0.15 ml of 60 mM 4-Aminoantipyrine (4-AAP) • c. 0.15 ml of 1.5% Phenol • d. 0.15 ml of 20 U/ml Horseradish peroxidase (HRP) • e. 0.1 M respective buffer to make up to 3 ml • a. Uricase added to the above mixture and incubated at 25°C for 20 min. The colour is measured at 505 nm (Chen, Wang et al. 2008). • b. The reaction mix was set for 300 µl rather than 3 ml for convenient measuring in BiotekPowerwave X Elisa plate reader. The amounts of the solutions added in the assay mix were calculated accordingly for 300 µl.
(§2) The kinetics of the uricases was studied to evaluate the efficiency of the enzymes. The kinetic parameters of the uricases of all the species were determined at their respective optimum pH and optimum temperatures. The substrate (uric acid) was added in increasing concentrations ranging from 10 to 600 µM (10, 20, 40, 80, 100, 200, 300, 400, 500, and 600) in triplicates. The assay reagents for the kinetic studies were added in 96 well plates in triplicates in the buffer of pH 7.0 and incubated at 35°C. Equal amounts of enzyme were added and immediately readings were taken at 505 nm. Around 30 readings were taken at the interval of 1min. The readings at a particular time point were taken for further steady state kinetic study of uricases. The KM and Vmax values were determined from Michaelis-Menten saturation curve by the non-linear curve fit (ORIGIN 7.5). kcat and kcat/KM values were also calculated (table 5). Table 5: Kinetic properties of the uricases of this invention

[2] = biological target: T1, Kluyveromyces lactis uricase KlUOX (wild type) (SEQ ID NO.1) (Kluyveromyces lactis, UniProt Q6CNP7); type: biochemical; conditions: substrate uric acid; pH 7.0, 35°C; Table 5
T1 sequence (Q6CNP7 1-308): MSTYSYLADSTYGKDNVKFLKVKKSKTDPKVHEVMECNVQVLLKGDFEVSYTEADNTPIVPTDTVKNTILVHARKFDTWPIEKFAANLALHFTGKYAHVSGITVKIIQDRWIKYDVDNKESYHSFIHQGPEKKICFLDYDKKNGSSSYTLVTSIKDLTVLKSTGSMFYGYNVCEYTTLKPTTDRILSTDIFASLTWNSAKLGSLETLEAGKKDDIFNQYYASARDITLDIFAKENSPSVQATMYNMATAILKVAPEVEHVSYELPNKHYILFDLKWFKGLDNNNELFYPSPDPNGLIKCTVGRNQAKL
Description: as §1, §2

[3] = biological target: T2, Kluyveromyces lactis uricase variant KI F167W, Mutant 2 (SEQ ID NO.3) (Kluyveromyces lactis, UniProt Q6CNP7, F167W); type: biochemical; conditions: substrate uric acid; pH 7.0, 35°C; Table 5
T2 sequence (Q6CNP7 1-308 F167W): T1 sequence (Q6CNP7 1-308)
Description: as §1, §2

[4] = biological target: T3, Kluyveromyces lactis uricase variant KI T62S, Mutant 1 (SEQ ID NO.2) (Kluyveromyces lactis, UniProt Q6CNP7, T62S); type: biochemical; conditions: substrate uric acid; pH 7.0, 35°C; Table 5
T3 sequence (Q6CNP7 1-308 T62S): T1 sequence (Q6CNP7 1-308)
Description: as §1, §2

[5] = system: O=c1[nH]c(=O)c2[nH]c(=O)[nH]c2[nH]1; type: biochemical, Kluyveromyces lactis; conditions: other: substrate uric acid 10 to 600 µM, pH 7.0, 35°C, Table 1
Description: as §1, §2

[6] = substrate: O=c1[nH]c(=O)c2[nH]c(=O)[nH]c2[nH]1; type: biochemical, Candida utilis; conditions: other: substrate uric acid 10 to 600 µM; respective optimum pH and temperature; Table 1; pH 7.0
Description: as §1, §2

[7] = substrate: O=c1[nH]c(=O)c2[nH]c(=O)[nH]c2[nH]1; type: biochemical, A. globiformis; conditions: other: substrate uric acid 10 to 600 µM; respective optimum pH and temperature; Table 1; pH 7.0
Description: as §1, §2

[8] = substrate: O=c1[nH]c(=O)c2[nH]c(=O)[nH]c2[nH]1; type: biochemical, Kluyveromyces lactis; conditions: other: substrate uric acid 10 to 600 µM, pH 7.0, 35°C, Table 1; remark: listed apart in the source
Description: as §1, §2

Molecule: A. flavus uricase (Aspergillus flavus)
- Km [1]: 96.2 µM
- kcat [1]: 0.0717 s⁻¹
- kcat/Km [1]: 733 M⁻¹ s⁻¹

Molecule: O=c1[nH]c(=O)c2[nH]c(=O)[nH]c2[nH]1 [uric acid]
- Kcat [2]: 0.2027 s⁻¹
- Kcat [3]: 0.242 s⁻¹
- Kcat [4]: 0.2387 s⁻¹

Molecule: Kluyveromyces lactis uricase variant KI T62S, Mutant 1 (SEQ ID NO.2) (Kluyveromyces lactis NRRL Y-1140; T62S)
- Km [5]: 16.2 µM
- kcat [5]: 0.2387 s⁻¹
- kcat/Km [5]: 14700 M⁻¹ s⁻¹

Molecule: Kluyveromyces lactis uricase variant KI F167W, Mutant 2 (SEQ ID NO.3) (Kluyveromyces lactis NRRL Y-1140; F167W)
- Km [5]: 28.07 µM
- kcat [5]: 0.242 s⁻¹
- kcat/Km [5]: 8600 M⁻¹ s⁻¹

B1: C. utilis uricase (Williopsis jadinii) (protein)
chain: MSTTLSSSTYGKDNVKFLKVKKDPQNPKKQEVMEATVTCLLEGGFDTSYTEADNSSIVPTDTVKNTILVLAKTTEIWPIERFAAKLATHFVEKYSHVSGVSVKIVQDRWVKYAVDGKPHDHSFIHEGGEKRITDLYYKRSGDYKLSSAIKDLTVLKSTGSMFYGYNKCDFTTLQPTTDRILSTDVDATWVWDNKKIGSVYDIAKAADKGIFDNVYNQAREITLTTFALENSPSVQATMFNMATQILEKACSVYSVSYALPNKHYFLIDLKWKGLENDNELFYPSPHPNGLIKCTVVRKEKTKL
- Km [6]: 38.5 ± 5.16 µM
- kcat [6]: 0.2027 s⁻¹
- kcat/Km [6]: 5250 M⁻¹ s⁻¹

B2: A. globiformis uricase (Arthrobacter globiformis) (protein)
chain: MTATAETSTGTKVVLGQNQYGKAEVRLVKVTRNTARHEIQDLNVTSQLRGDFEAAHTAGDNAHVVATDTQKNTVYAFARDGFATTEEFLLRLGKHFTEGFDWVTGGRWAAQQFFWDRINDHDHAFSRNKSEVRTAVLEISGSEQAIVAGIEGLTVLKSTGSEFHGFPRDKYTTLQETTDRILATDVSARWRYNTVEVDFDAVYASVRGLLLKAFAETHSLALQQTMYEMGRAVIETHPEIDEIKMSLPNKHHFLVDLQPFGQDNPNEVFYAADRPYGLIEATIQREGSRADHPIWSNIAGFC
- Km [7]: 215 ± 2.16 µM
- kcat [7]: 0.0145 s⁻¹
- kcat/Km [7]: 67 M⁻¹ s⁻¹

B3: Kluyveromyces lactis uricase KlUOX (wild type) (SEQ ID NO.1) (Kluyveromyces lactis NRRL Y-1140) (protein)
chain: T1 sequence (Q6CNP7 1-308)
- Km [8]: 40.8 µM
- kcat [8]: 0.2027 s⁻¹
- kcat/Km [8]: 4830 M⁻¹ s⁻¹
